Numbering of substitutions follows the chain as printed.
B1: NRC3_wobSeed74_DR3_C15T_o1 (dsDNA)
DNA 1: GCTCTAGTTGGTCATGGAGGTCACACACGACGGGTAGCGATTGACAGCGTAGAATGAAGG
DNA 2: CCTTCATTCTACGCTGTCAATCGCTACCCGTCGTGTGTGACCTCCATGACCAACTAGAGC
B2: NRC3_wobSeed74_DR3_A14G_o1 (dsDNA)
DNA 1: B1 DNA 1 with A14G, T15C
DNA 2: B1 DNA 2 with A46G, T47C
B3: NRC3_wobSeed99_DR4_G10T_o1 (dsDNA)
DNA 1: GCTCTCGGATGACACGAAAGGTCAGAGCTCGACATCGCGATTGACAGCGTAGAATGAAGG
DNA 2: CCTTCATTCTACGCTGTCAATCGCGATGTCGAGCTCTGACCTTTCGTGTCATCCGAGAGC
B4: NRC3_wobSeed44_DR1_T13C_o1 (dsDNA)
DNA 1: GCTGAATGAGGTCAAAGATCAGGGAACGTGGCGTCGGCGATTGACAGCGTAGAATGAAGG
DNA 2: CCTTCATTCTACGCTGTCAATCGCCGACGCCACGTTCCCTGATCTTTGACCTCATTCAGC
B5: NRC3_wobSeed82_DR3_A28G_o1 (dsDNA)
DNA 1: GCATCGAAAGGTCGACGAGGTGAGTATGCACCGTTTGCGATTGACAGCGTAGAATGAAGG
DNA 2: CCTTCATTCTACGCTGTCAATCGCAAACGGTGCATACTCACCTCGTCGACCTTTCGATGC
B6: NRC3_wobSeed18_DR0_G16T_o1 (dsDNA)
DNA 1: GCGATACAGGGTCAATGCCAGAGTACGCGTATTGATGCGATTGACAGCGTAGAATGAAGG
DNA 2: CCTTCATTCTACGCTGTCAATCGCATCAATACGCGTACTCTGGCATTGACCCTGTATCGC
B7: NRC3_wobSeed3_DR0_G21C_o1 (dsDNA)
DNA 1: GCGCTCGGAGGACAAGGTCACAGCTTTGTCCGTAGAGCGATTGACAGCGTAGAATGAAGG
DNA 2: CCTTCATTCTACGCTGTCAATCGCTCTACGGACAAAGCTGTGACCTTGTCCTCCGAGCGC
B8: NRC3_wobSeed109_DR4_G25T_o1 (dsDNA)
DNA 1: GCCGTCCAAGGTCATAGGAGGTCATTGAAGACAGATGCGATTGACAGCGTAGAATGAAGG
DNA 2: CCTTCATTCTACGCTGTCAATCGCATCTGTCTTCAATGACCTCCTATGACCTTGGACGGC
B9: NRC3_wobSeed101_DR4_G20T_o1 (dsDNA)
DNA 1: GCCCTTACGGGTCACTCCATGTTATAGCATCGGAGTGCGATTGACAGCGTAGAATGAAGG
DNA 2: CCTTCATTCTACGCTGTCAATCGCACTCCGATGCTATAACATGGAGTGACCCGTAAGGGC
B10: NRC3_wobSeed21_DR0_G17C_o1 (dsDNA)
DNA 1: GCCGTCAAAGTTCAAGCTAACGTAACAGAAAGCAGCGCGATTGACAGCGTAGAATGAAGG
DNA 2: CCTTCATTCTACGCTGTCAATCGCGCTGCTTTCTGTTACGTTAGCTTGAACTTTGACGGC
B11: NRC3_wobSeed21_DR0_T18C_o1 (dsDNA)
DNA 1: B10 DNA 1 with C17G, T18C
DNA 2: B10 DNA 2 with A43G, G44C
B12: NRC3_wobSeed73_DR3_G26C_o1 (dsDNA)
DNA 1: GCCAAACTAGGTCACAGAGGTCAAACTCCGTGCGTAGCGATTGACAGCGTAGAATGAAGG
DNA 2: CCTTCATTCTACGCTGTCAATCGCTACGCACGGAGTTTGACCTCTGTGACCTAGTTTGGC
B13: NRC3_wobSeed73_DR3_T21G_o1 (dsDNA)
DNA 1: B12 DNA 1 with T21G, C26G
DNA 2: B12 DNA 2 with G35C, A40C
B14: NRC3_wobSeed73_DR3_C22T_o1 (dsDNA)
DNA 1: B12 DNA 1 with C22T, C26G
DNA 2: B12 DNA 2 with G35C, G39A
B15: NRC3_wobSeed88_DR3_C7A_o1 (dsDNA)
DNA 1: GCTAGCATAGGTCATGCGGGCCAGTATAGTGTCGGCGCGATTGACAGCGTAGAATGAAGG
DNA 2: CCTTCATTCTACGCTGTCAATCGCGCCGACACTATACTGGCCCGCATGACCTATGCTAGC
B16: NRC3_wobSeed50_DR2_T12G_o1 (dsDNA)
DNA 1: GCCCTAGTTGGGCAGGAGGTCACACACCGGATATGAGCGATTGACAGCGTAGAATGAAGG
DNA 2: CCTTCATTCTACGCTGTCAATCGCTCATATCCGGTGTGTGACCTCCTGCCCAACTAGGGC
B17: NRC3_wobSeed2_DR0_C4T_o1 (dsDNA)
DNA 1: GCCTTAGTTGGTCAAGGTCACACACGCTATAGGTACGCGATTGACAGCGTAGAATGAAGG
DNA 2: CCTTCATTCTACGCTGTCAATCGCGTACCTATAGCGTGTGTGACCTTGACCAACTAAGGC
B18: NRC3_wobSeed122_DR5_G10T_o1 (dsDNA)
DNA 1: GCGCTAGTTTGTCAGTAAAAGGTCACACACCGGTCGGCGATTGACAGCGTAGAATGAAGG
DNA 2: CCTTCATTCTACGCTGTCAATCGCCGACCGGTGTGTGACCTTTTACTGACAAACTAGCGC
B19: NRC3_wobSeed122_DR5_C4A_o1 (dsDNA)
DNA 1: B18 DNA 1 with C4A, T10G
DNA 2: B18 DNA 2 with A51C, G57T
B20: NRC3_wobSeed34_DR1_A15C_o1 (dsDNA)
DNA 1: GCATCGAAAGGTCGCAGGTGAGTATACCCACCCGAAGCGATTGACAGCGTAGAATGAAGG
DNA 2: CCTTCATTCTACGCTGTCAATCGCTTCGGGTGGGTATACTCACCTGCGACCTTTCGATGC
B21: NRC3_wobSeed34_DR1_G6T_o1 (dsDNA)
DNA 1: B20 DNA 1 with G6T, C15A
DNA 2: B20 DNA 2 with G46T, C55A
B22: NRC3_wobSeed46_DR1_G13T_o1 (dsDNA)
DNA 1: GCTTACCAAGGTTAAAGGTCGTTGATGCACGCCTTGGCGATTGACAGCGTAGAATGAAGG
DNA 2: CCTTCATTCTACGCTGTCAATCGCCAAGGCGTGCATCAACGACCTTTAACCTTGGTAAGC
B23: NRC3_wobSeed133_DR5_T23C_o1 (dsDNA)
DNA 1: GCCGTCCAAGGTCAATGCTAGGCCAGTGAAAGCATTGCGATTGACAGCGTAGAATGAAGG
DNA 2: CCTTCATTCTACGCTGTCAATCGCAATGCTTTCACTGGCCTAGCATTGACCTTGGACGGC
B24: NRC3_wobSeed124_DR5_T16A_o1 (dsDNA)
DNA 1: GCCCTACTGGGCCATACAGAGGTCATTGATCATATGGCGATTGACAGCGTAGAATGAAGG
DNA 2: CCTTCATTCTACGCTGTCAATCGCCATATGATCAATGACCTCTGTATGGCCCAGTAGGGC
B25: NRC3_wobSeed93_DR3_T26A_o1 (dsDNA)
DNA 1: GCAGTCAAAGTTCATCTAGGTAACGAAAGATATGCTGCGATTGACAGCGTAGAATGAAGG
DNA 2: CCTTCATTCTACGCTGTCAATCGCAGCATATCTTTCGTTACCTAGATGAACTTTGACTGC
B26: NRC3_wobSeed93_DR3_A23T_o1 (dsDNA)
DNA 1: B25 DNA 1 with A23T, A26T
DNA 2: B25 DNA 2 with T35A, T38A
B27: NRC3_wobSeed5_DR0_A20G_o1 (dsDNA)
DNA 1: GCCCTTACGGGTCAAGGTTGTAGCACGGGTGGTACGGCGATTGACAGCGTAGAATGAAGG
DNA 2: CCTTCATTCTACGCTGTCAATCGCCGTACCACCCGTGCTACAACCTTGACCCGTAAGGGC
B28: NRC3_wobSeed100_DR4_C12G_o1 (dsDNA)
DNA 1: GCCCTACTGGGGCACGAAAGGTCATTGATTCAGTGAGCGATTGACAGCGTAGAATGAAGG
DNA 2: CCTTCATTCTACGCTGTCAATCGCTCACTGAATCAATGACCTTTCGTGCCCCAGTAGGGC
B29: NRC3_wobSeed100_DR4_C13G_o1 (dsDNA)
DNA 1: B28 DNA 1 with G12C, C13G
DNA 2: B28 DNA 2 with G48C, C49G
B30: NRC3_wobSeed100_DR4_C15T_o1 (dsDNA)
DNA 1: B28 DNA 1 with G12C, C15T
DNA 2: B28 DNA 2 with G46A, C49G
B31: NRC3_wobSeed97_DR4_T22G_o1 (dsDNA)
DNA 1: GCCAAACTAGGTCACGAAAGGGCAAAGTCGAATGACGCGATTGACAGCGTAGAATGAAGG
DNA 2: CCTTCATTCTACGCTGTCAATCGCGTCATTCGACTTTGCCCTTTCGTGACCTAGTTTGGC
B32: NRC3_wobSeed98_DR4_o1 (dsDNA)
DNA 1: GCACTAGTTGGTCAGCTGAGGTCACACACAATTCGGGCGATTGACAGCGTAGAATGAAGG
DNA 2: CCTTCATTCTACGCTGTCAATCGCCCGAATTGTGTGTGACCTCAGCTGACCAACTAGTGC
B33: NRC3_wobSeed98_DR4_G15C_o1 (dsDNA)
DNA 1: B32 DNA 1 with G15C
DNA 2: B32 DNA 2 with C46G
B34: NRC3_wobSeed30_DR1_C4G_o1 (dsDNA)
DNA 1: GCAGTAGCAGGCCAAGGGTCACTCAAGATTAGTCCGGCGATTGACAGCGTAGAATGAAGG
DNA 2: CCTTCATTCTACGCTGTCAATCGCCGGACTAATCTTGAGTGACCCTTGGCCTGCTACTGC

These binders were tested against RXRa (Homo sapiens, UniProt P19793) (assay: no ligand; PBM; 180 nM; PBS pH 7.4, 2% milk, 0.02% Triton X-100, 1 mM DTT, BSA, 0.4 mg/ml salmon testes DNA). Conditions: tags: His cleaved; chain copies: 2; label: surface-attached array probe.
RXRa, sequence (P19793 whole entry): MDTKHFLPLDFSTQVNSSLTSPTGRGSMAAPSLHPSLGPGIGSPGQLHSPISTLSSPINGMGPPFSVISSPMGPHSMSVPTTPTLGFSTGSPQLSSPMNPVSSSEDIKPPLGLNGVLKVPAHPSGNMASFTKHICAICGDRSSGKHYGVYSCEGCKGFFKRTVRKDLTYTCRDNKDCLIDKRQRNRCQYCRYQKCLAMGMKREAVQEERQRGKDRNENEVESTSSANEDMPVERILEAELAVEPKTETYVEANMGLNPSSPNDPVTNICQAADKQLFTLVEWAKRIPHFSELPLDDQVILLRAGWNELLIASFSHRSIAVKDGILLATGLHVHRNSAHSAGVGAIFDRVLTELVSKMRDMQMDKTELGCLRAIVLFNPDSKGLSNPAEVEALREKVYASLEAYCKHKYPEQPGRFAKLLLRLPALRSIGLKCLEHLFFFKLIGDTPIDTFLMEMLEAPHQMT
For B1, the binding signal was 5.28 PBM z-score against 500 random probes. For B2, the binding signal was 4.16 PBM z-score against 500 random probes. With B3 the binding signal was 4.05 PBM z-score against 500 random probes. For B4, the binding signal was 7.98 PBM z-score against 500 random probes. With B5 the binding signal was 4.34 PBM z-score against 500 random probes. B6 was tested, and the binding signal was 4.72 PBM z-score against 500 random probes. In the case of B7, the binding signal is reported as 4.86 PBM z-score against 500 random probes. In the case of B8, the binding signal is reported as 7.89 PBM z-score against 500 random probes. With B9 the binding signal was 4.24 PBM z-score against 500 random probes. In the case of B10, the binding signal is reported as 4.62 PBM z-score against 500 random probes. For B11, the binding signal was 3.96 PBM z-score against 500 random probes. With B12 the binding signal was 8.89 PBM z-score against 500 random probes. In the case of B13, the binding signal is reported as 4.01 PBM z-score against 500 random probes. B14 was tested, and the binding signal was 5.19 PBM z-score against 500 random probes. With B15 the binding signal was 4.81 PBM z-score against 500 random probes. For B16, the binding signal was 3.92 PBM z-score against 500 random probes. With B17 the binding signal was 5.06 PBM z-score against 500 random probes. For B18, the binding signal was 5.24 PBM z-score against 500 random probes. For B19, the binding signal was 4.99 PBM z-score against 500 random probes. In the case of B20, the binding signal is reported as 5.33 PBM z-score against 500 random probes. B21 was tested, and the binding signal was 4.9 PBM z-score against 500 random probes. B22 was tested, and the binding signal was 7.99 PBM z-score against 500 random probes. For B23, the binding signal was 4.95 PBM z-score against 500 random probes. For B24, the binding signal was 4.2 PBM z-score against 500 random probes. In the case of B25, the binding signal is reported as 5.16 PBM z-score against 500 random probes. For B26, the binding signal was 4.47 PBM z-score against 500 random probes. In the case of B27, the binding signal is reported as 4.67 PBM z-score against 500 random probes. In the case of B28, the binding signal is reported as 5.1 PBM z-score against 500 random probes. With B29 the binding signal was 4.57 PBM z-score against 500 random probes. B30 was tested, and the binding signal was 4.52 PBM z-score against 500 random probes. For B31, the binding signal was 4.76 PBM z-score against 500 random probes. B32 was tested, and the binding signal was 4.42 PBM z-score against 500 random probes. In the case of B33, the binding signal is reported as 4.28 PBM z-score against 500 random probes. In the case of B34, the binding signal is reported as 4.38 PBM z-score against 500 random probes.
